Patent US11634470B2, “Integrin binding peptides and uses thereof” (Universiteit Twente, priority 2015, dated 2023)
Primed or numbered codes have the meaning given here. Where no end group is shown, it is not given here. PEG(6) = PEG(6) linker

How the values were obtained:
[1] = system: human skin fibroblasts BJhtert; experiment: Scratch (wound) migration of human skin fibroblasts; format: cell-based; settings: after 24 hours
Method: FIG. 15: Effect of peptides on migration of human fibroblasts. Human skin fibroblasts BJhtert were grown to full confluency and a scratch (wound) was made and effects of peptides were determined on the wound closure (migration of fibroblasts) after 24 hours. […] (1. SEQ ID NO:8, 2. SEQ ID NO: 11, 3. SEQ ID NO:62, 4. SEQ ID NO:63, 5. SEQ ID NO: 64, 6. SEQ ID NO:76, and 7. SEQ ID NO:68.)

ITGA11 receptor (α11β1) = target: T1, ITGA11 receptor (α11β1) (Homo sapiens, UniProt Q9UKX5); experiment: Binding of FITC-labeled peptides to coated ITGA11 receptor; settings: FITC-labeled peptide, 37° C. 1 hour
T1 construct: purchased R&D systems
T1 sequence (Q9UKX5 23-1141 limits assumed): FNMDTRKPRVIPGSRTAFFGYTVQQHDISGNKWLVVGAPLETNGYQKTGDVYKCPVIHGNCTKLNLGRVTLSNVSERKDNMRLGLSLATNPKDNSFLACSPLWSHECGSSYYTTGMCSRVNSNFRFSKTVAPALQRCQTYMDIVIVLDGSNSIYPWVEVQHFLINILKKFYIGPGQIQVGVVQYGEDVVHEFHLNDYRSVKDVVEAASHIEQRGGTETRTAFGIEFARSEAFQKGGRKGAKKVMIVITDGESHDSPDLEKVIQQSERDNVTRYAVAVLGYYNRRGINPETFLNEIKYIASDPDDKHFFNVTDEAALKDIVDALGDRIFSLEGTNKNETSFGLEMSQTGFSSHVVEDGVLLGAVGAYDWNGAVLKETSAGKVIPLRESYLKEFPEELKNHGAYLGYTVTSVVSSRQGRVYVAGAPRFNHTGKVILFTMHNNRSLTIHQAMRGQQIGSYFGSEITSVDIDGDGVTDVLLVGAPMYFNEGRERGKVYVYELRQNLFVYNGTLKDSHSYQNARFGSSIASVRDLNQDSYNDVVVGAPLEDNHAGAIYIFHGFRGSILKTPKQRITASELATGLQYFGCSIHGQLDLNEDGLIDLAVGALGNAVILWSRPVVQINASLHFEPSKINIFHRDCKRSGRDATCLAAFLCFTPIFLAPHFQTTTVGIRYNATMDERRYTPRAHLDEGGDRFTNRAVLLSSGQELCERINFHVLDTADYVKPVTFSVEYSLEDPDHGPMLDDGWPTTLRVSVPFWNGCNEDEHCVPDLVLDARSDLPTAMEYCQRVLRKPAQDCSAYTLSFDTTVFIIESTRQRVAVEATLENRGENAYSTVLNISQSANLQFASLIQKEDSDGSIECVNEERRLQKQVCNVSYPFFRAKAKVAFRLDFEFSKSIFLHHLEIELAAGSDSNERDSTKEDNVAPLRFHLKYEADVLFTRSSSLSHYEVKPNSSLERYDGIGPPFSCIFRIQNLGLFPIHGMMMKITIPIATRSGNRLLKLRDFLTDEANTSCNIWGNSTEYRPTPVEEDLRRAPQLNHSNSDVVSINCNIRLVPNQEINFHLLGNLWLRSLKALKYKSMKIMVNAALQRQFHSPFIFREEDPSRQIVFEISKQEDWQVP
T1 sequence (P05556 21-728 partner limits assumed): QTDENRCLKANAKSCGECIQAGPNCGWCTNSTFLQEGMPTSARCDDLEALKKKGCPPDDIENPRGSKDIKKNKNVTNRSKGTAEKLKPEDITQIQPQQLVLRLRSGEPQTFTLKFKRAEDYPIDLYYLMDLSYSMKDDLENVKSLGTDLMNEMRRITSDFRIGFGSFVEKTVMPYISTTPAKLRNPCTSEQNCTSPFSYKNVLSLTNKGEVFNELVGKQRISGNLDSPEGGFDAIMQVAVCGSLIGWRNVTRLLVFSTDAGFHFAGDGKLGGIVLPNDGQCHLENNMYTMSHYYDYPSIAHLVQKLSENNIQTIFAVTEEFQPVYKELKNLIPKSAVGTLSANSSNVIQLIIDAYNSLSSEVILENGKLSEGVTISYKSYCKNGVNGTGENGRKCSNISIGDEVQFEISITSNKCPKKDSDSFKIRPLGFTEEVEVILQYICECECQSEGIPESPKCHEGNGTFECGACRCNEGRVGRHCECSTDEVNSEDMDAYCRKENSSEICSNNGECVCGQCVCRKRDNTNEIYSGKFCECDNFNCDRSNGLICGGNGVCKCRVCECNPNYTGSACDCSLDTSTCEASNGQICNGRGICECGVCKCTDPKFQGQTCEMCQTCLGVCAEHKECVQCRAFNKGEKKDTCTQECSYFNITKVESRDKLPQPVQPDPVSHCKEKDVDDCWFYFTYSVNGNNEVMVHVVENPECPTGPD
Method: (§1) Purified ITGA11 receptor (α11β1; 100 μg/ml—stock; R&D systems) was diluted to 5 μg/ml with 1×PBS. 96-well ELISA White Maxisorb plate (Nunc) was coated with 50 μl of 5 μg/ml ITGA11 (or as control α5β1) receptor for overnight at 4° C. Then, wells were blocked for 3-4 hours with 200 μl of blocking buffer (1×PBS containing 5% BSA). Wells were washed three times with 200 μl of washing buffer (1×PBS containing 0.5% BSA and 0.05% TWEEN®-20). Peptides conjugated with FITC were diluted to different concentrations in washing buffer and then added to the plate and incubated at 37° C. for 1 hour. In addition, the binding of the peptide was blocked by co-incubation with 10× higher amount of unlabeled peptide. Subsequently, wells were washed three times with washing buffer. Then, 100 μl of 1×PBS was added and plates were read at 485 nm/520 nm with a fluorescence plate reader.

α5β1 [2] = target: T2, α5β1 (Homo sapiens, UniProt P08648); experiment: Binding of FITC-labeled peptide to coated control receptor α5β1; settings: similar to empty wells
T2 sequence (P08648 42-894 limits assumed): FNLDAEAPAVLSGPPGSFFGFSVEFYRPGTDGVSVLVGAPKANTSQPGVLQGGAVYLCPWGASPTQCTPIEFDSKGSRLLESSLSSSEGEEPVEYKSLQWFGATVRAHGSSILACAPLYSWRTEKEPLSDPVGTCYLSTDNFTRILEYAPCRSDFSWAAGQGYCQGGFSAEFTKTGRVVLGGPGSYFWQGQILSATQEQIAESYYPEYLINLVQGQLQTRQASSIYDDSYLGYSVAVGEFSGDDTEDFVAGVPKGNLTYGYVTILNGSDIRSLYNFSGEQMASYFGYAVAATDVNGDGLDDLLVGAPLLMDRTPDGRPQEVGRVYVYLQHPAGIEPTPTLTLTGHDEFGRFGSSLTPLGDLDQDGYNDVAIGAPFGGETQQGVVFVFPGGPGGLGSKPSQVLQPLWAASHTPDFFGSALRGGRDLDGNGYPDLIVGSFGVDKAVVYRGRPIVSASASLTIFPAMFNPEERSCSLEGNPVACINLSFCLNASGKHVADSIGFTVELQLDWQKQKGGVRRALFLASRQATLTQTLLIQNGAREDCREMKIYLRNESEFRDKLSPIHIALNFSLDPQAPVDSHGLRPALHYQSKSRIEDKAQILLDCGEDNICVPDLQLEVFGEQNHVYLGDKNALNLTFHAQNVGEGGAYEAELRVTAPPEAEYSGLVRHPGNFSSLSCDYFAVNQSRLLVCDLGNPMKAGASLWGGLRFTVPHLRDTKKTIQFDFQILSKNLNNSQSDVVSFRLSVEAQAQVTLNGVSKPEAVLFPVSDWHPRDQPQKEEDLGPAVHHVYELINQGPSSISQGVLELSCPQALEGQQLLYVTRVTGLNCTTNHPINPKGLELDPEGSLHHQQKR
T2 sequence (P08648 895-995 limits assumed): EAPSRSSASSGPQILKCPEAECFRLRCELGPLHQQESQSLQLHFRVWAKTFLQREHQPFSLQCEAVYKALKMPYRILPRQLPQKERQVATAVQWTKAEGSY
T2 sequence (P05556 21-728 partner limits assumed): as the sequence (P05556 21-728 partner limits assumed) above
Method: as §1

[3] = system: primary human pancreatic stellate cells; experiment: AXI-I-PEG-FITC binding assay, flow cytometry; format: cell-based; parameters: unit not given here; settings: suspended PSCs, 1 hour at 4° C.
Method: PSCs were trypsinized using trypsin-EDTA solution and cell numbers were diluted to 4×10^4 cells/ml. Cells were incubated at 37° C. for 30 minutes to allow receptor recovery. Then different concentrations of AXI-I-FITC was added to the cells containing 2% FBS and incubated at 4° C. for 60 minutes. Thereafter, cells were centrifuged at 1500 rpm at 4° C. for 10 minutes. Supernatant was removed and cells were washed 3 times with PBS and then were fixed with 0.5% formaldehyde for 1 hour at 4° C. and measured with flow cytometry for fluorescence.

[4] = system: LX2 hepatic stellate cells; experiment: Cell binding experiment, fluorescence microscopy; format: cell-based, human; settings: FITC-labeled peptides 20 μM, 2 hours, room temperature
Method: Human hepatic stellate cells (LX2, 15,000 cells/well) were cultured overnight in permanox Lab-Tek 8-well chamber slides (Nunc). After overnight incubation, cells were washed 3× with 0.5% BSA containing medium and then FITC-labeled peptides (20 μM) was added and incubated at room temperature for 2 hours with intermittent shaking. The cells were then washed 3× with 0.5% BSA containing medium and 2×PBS. Thereafter, cells were fixed with 4% paraformaldehyde (prepared in 1×PBS) for 20 minutes followed by 3 times washing with 1×PBS. Cells were then mounted with mounting medium with DAPI (vector labs) and visualized under the fluorescence microscope (Nikon E600). For phalloidin staining, cells after fixation were incubated with TRITC-conjugated Phalloidin (1:1000 prepared in 1×PBS containing 0.1% TRITON-X® 100) for 10 minutes. Then, cells were washed thrice with PBS and mounted with DAPI-containing mounting medium.

α5β1 [5] = target: T2, α5β1; experiment: Peptide binding study on the coated receptor; settings: for binding to the coated α5β1 receptor: PEG(6)-Fluorescein labeled peptide
Method: The purified human recombinant α5β1 or α11β1 receptors (5 μg/ml in PBS) were coated onto 96-well ELISA plates (White Maxisorb-Nunc) by incubating overnight at 4° C. Then, the wells were blocked with blocking buffer (5% (w/v) BSA, 150 mM Nacl, 25 mM Tris) for 2 hours at room temperature. Then, the wells were washed three times with 200 μl of washing buffer (150 mM Nacl, 25 mM Tris-base, 0.005% TWEEN® 20, 0.5% BSA). Thereafter, the peptides conjugated with PEG(6)-FITC were diluted to different concentrations in washing buffer. For the competitive studies, the wells were co-incubated with 10-fold higher amount of unlabeled peptides. The plates were incubated at 37° C. for 60 minutes. Then, the wells were washed three times with washing buffer and subsequently, the plates were read for the fluorescein signal Ex/Em 485 nm/520 nm using a fluorescent plate reader (Perkin Elmer).

[6] = system: human primary pancreatic stellate cells (PSCs); experiment: TGF-β1 activation of pancreatic stellate cells; format: cell-based; settings: TGFβ1-activated PSCs, immunostaining, 20 μM
Method: Human primary pancreatic stellate cells (PSCs) were obtained from ScienCell (Carlsbad, Calif.) and were cultured in specified medium provided by the manufacturer, supplemented with penicillin/streptomycin. Cells were used less than the passage 9 and seeded on a Poly-L-Lysine-coated plate.
PSCs were seeded into a 12-well plate (6×10^4 cells/well, for gene expression) or 24-well plate (for staining) in complete medium. After 24 hours, cells were starved in serum-free medium and then after 24 hours, they were added with TGF-β1 (5 ng/ml) with/without the peptide.
After 24 hours of incubation, cells were lysed with the lysis buffer and total RNA was isolated using the GenElute™ Mammalian Total RNA Miniprep Kit. The RNA amount was measured by a NanoDrop® ND-1000 Spectrophotometer (Wilmington, Del.). Subsequently, cDNA was synthesized with iScript™ cDNA Synthesis Kit (BioRad, Veenendaal, The Netherlands). 10 ng cDNA was used for each PCR reaction. The real-time qPCR primers for human αSMA and RPS18 were purchased from Sigma (The Netherlands). Gene expression levels were normalized to the expression of the house-keeping gene RPS18s.
For immunostaining, the cells were washed and fixed with acetone-methanol and processed for immunocytochemical staining.
For immunocytostaining, cells were fixed with acetone-methanol (1:1) at −20° C. for 30 minutes and then dried and rehydrated for 10 minutes. […]

α5β1 [7] = target: T2, α5β1; experiment: ITGA5 peptide selection, overlapping fibronectin peptides displayed on membrane; format: binding; parameters: purchased R&D systems; settings: peptides attached by C-terminal on membrane, 5 μg/ml α5β1
Method: Peptides were attached to their c-terminal site using stable linker. […] The peptide-displaying […] membrane was soaked in methanol for 1 minute and rinsed in Tris-buffered saline (TBS) and washed 3 times. Then, the membrane was blocked with 3% BSA in 0.05% TWEEN®-20 containing TBS (TBST) for 3 hours at room temperature. Then, the membrane was washed for 10 minutes with TBST and incubated with 5 μg/ml α5β1 human recombinant protein (R&D systems) in 3% BSA in TBST for 1 hour at room temperature and then overnight at 4° C. Subsequently, the membrane was washed 3 times with TBST. Thereafter, the bound receptor to the membrane was transferred to the PVDF membrane. To achieve this, first, the PVDF membrane was soaked in methanol for 1 minute and then blocked with 5% skimmed fat milk for 2 hours. Then, the membrane was incubated with primary anti-alpha5 integrin antibody (Sigma-Aldrich) for overnight in 5% skimmed milk. The membrane was washed 3 times with TBST and then incubated with anti-rabbit-HRP secondary antibody (Dako), washed and developed with chemiluminescence detection kit.

α11β1 receptor = α11β1 receptor (Homo sapiens, UniProt Q9UKX5); experiment: Peptide microarray binding, alanine scanning and chain length scan of AXI-I; settings: receptor 10 μg/ml
Sequence of α11β1 receptor (Q9UKX5 23-1141 limits assumed): as the sequence (Q9UKX5 23-1141 limits assumed) above
Sequence of α11β1 receptor (P05556 21-728 partner limits assumed): as the sequence (P05556 21-728 partner limits assumed) above
Method: Peptide microarray was prepared by conjugating peptides at their N-terminal to a glass slide using a PEG linker. […] For the binding studies, the peptide array was blocked with 3% BSA in TBST for 2 hours. Then the array slide was washed 5 times in TBST and subsequently incubated with the target receptor (α11β1, 10 μg/ml dissolved in PBS) for 1 hour at 37° C. The slides were washed with TBST and then incubated with primary antibody (1 μg/ml) against ITGA11 for 1 hour at 37° C. Then slides were washed and incubated with fluorescent dye labeled secondary antibodies for 30 minutes. The slides were washed with TBST and water and then dried and scanned with a microarray scanner to detect binding of the peptides. The enlightened spots were analyzed using ImageJ software. To determine the unspecific binding, a peptide array was incubated with only primary and secondary antibodies without the receptor incubation step. Then, the signal of unspecific binding was subtracted from the total binding to calculate specific binding.

**Q.** “AV3.3: AV3 variant of FIG. 15 Panel B; possibly third listed peptide, SEQ ID NO:62 (RAYRITY; ITGA5 binding peptide)” was tested. Which reduction on migration [1] did it give?
**A.** The reduction on migration was “about 30%”.

**Q.** Which “binding to coated ITGA11 (α11β1) receptor” value (ITGA11 receptor (α11β1)) does the source give for “AXI-I-FITC: AXI-I peptide labeled with PEG(6)-FITC (SGLTEWLRWFNS; also: labeled with PEG(6)-FITC, site not given here)” here?
**A.** The value was “bound to the ITGA11 receptor specifically”.

**Q.** And the “binding to irrelevant receptor α5β1” value (α5β1 [2])?
**A.** The value was “very low binding”.

**Q.** And the “concentration at which binding reached plateau” value [3]?
**A.** Its value is 20.

**Q.** Which “binding to LX2 hepatic stellate cells” value [4] does the source give for “YYRITYGETGGN (SEQ ID NO:56)-K-PEG(6)-Fluorescein (YYRITYGETGGNK-{PEG(6)-Fluorescein}) [nAV2-FITC]” here?
**A.** Its value is “clearly bound to these cells”.

**Q.** How did the “binding to the coated α5β1 receptor” value (α5β1 [5]) turn out when “YYRITYGETGGN: YYRITYGETGGN with PEG(6)-Fluorescein introduced at the N-terminal side of the peptide (not fully specified (N-terminus))” was run?
**A.** Its value is “no binding was observed”.

**Q.** With “RYYRITYC (integrin binding peptide) [AV3-cys]” as the substance, how does the “expression of fibrotic markers α-SMA, Col-1a1 and vimentin” value [6] read?
**A.** The value was “clearly inhibited the expression of these biomarkers”.

**Q.** And the “migration of fibroblasts (wound closure)” value [1]?
**A.** Its value is “significantly inhibited the migration of fibroblasts”.

**Q.** How did the “binding to the α5β1 receptor (signal strength)” value (shortened to “binding to the α5β1 receptor”) (α5β1 [7]) turn out when ITANSFTVHWIA [Seq 1] was run?
**A.** Its value is “ITANSFTVHWIA-weak”.

**Q.** How did the “binding to the α5β1 receptor” value (α5β1 [7]) turn out when TNLLVRYSPVKN [Seq 7] was run?
**A.** The value was “TNLLVRYSPVKN-moderate”.

**Q.** How did the “binding to the α11β1 receptor on peptide microarray” value (α11β1 receptor) turn out when LTEWLRWF (ITGA11 binding peptide) was run?
**A.** Its value is “strongest binding”.

**Q.** Which “binding to the α5β1 receptor” value (α5β1 [7]) does the source give for GDSPASSKPISI [Seq 5] here?
**A.** The value was “GDSPASSKPISI-moderate”.

**Q.** With VALNGREESPLL [Seq 2] as the substance, how does the “binding to the α5β1 receptor” value (α5β1 [7]) read?
**A.** The value was “VALNGREESPLL-very weak”.

**Q.** For “SFATWTPNFERN (integrin binding peptide) [AXI-II]”, which “binding to LX2 hepatic stellate cells” value [4] is on record?
**A.** The value was “bound to the stellate cells”.

**Q.** Which “binding to the α5β1 receptor” value (α5β1 [7]) does the source give for SIELTNLLVRYS [Seq 6] here?
**A.** Its value is “SIELTNLLVRYS-moderate”.

**Q.** “TTVRYYRITYGE (integrin binding peptide) [Seq 3]” was tested. Which “binding to the α5β1 receptor” value (α5β1 [7]) did it give?
**A.** The value was “TTVRYYRITYGE-strong”.

**Q.** Which results are given for “YYRITYGETGGN (ITGA5 binding peptide) [nAV2]”?
**A.** binding to the coated α5β1 receptor (α5β1 [5]): good binding; blocking of nAV2-PEG-fluorescein binding to coated α5β1 by excess unlabeled peptide (α5β1 [5]; excess (10-fold) of unlabeled peptide): blocked; binding to the α5β1 receptor (signal strength) (α5β1 [7]): YYRITYGETGGN-very strong
